For series [1], the system named is Schwann cells. Description: TNF-α and TGF-β induced apoptosis, TUNEL assay. The note with it: TNF-α 20 ng/ml and TGF-β 40 ng/ml. The class given is cell-based, human. On the procedure:
(§1) Infected Schwann cells, Sc-Red cells, and Sc-PDNF cells were treated for 24 hours with 100 to 500 μM H2O2 with or without pretreatment with the Akt inhibitor Akti VIII (10 μM), fixed, and visualized by fluorescence microscopy after staining with DAPI and TUNEL reagents with the In Situ Cell Death Detection kit (Roche). Cell survival was measured by MTT-based CellTiter kit (Promega). Alternatively, Sc-Red and Sc-PDNF cells were grown for 4 days in DMEM, 1% bovine serum albumin (BSA) with or without TNF-α (20 ng/ml) and TGF-β1 (40 ng/ml) and with or without Akti VIII (10 μM).

Series [2] concerns Schwann cells. The class given is cell-based, human. The note with it: 100 μM H2O2, 24 hours. The procedure:
(§2) Immortalized human Schwann cells (54) were maintained in DMEM supplemented with 10% FCS and penicillin/streptomycin at 37° C. in 5% CO2. Infections were performed with T. cruzi trypomastigotes (Silvio strain) at 2×10^5 parasites/ml or at a parasite:cell ratio of 50:1. After 2 or 3 hours, monolayers were washed to remove unattached parasites and cells were then maintained in medium containing 2% FCS for 3 to 5 days to complete the intracellular infection cycle.
as §1

The test system of series [3] is Akt. Description: Akt-dependent phosphorylation of PDNF in Schwann cells (immunoprecipitation with TCN-2, Western blotting). The class given is cell-based, human. The procedure: To provide further evidence that the phosphorylation of PDNF depended on host […], T. cruzi-infected Schwann cells were treated with LY294002, a pharmacological inhibitor of PI3K, which phosphorylates and activates Akt (10), and with Akti VIII, a specific allosteric inhibitor of Akt that prevents the phosphorylation of Akt at Ser^473 and Thr^308, which is critical for the activation of Akt (25). Lysates of treated cells were assayed for phosphorylated Akt (pAkt) and, after immunoprecipitation with a PDNF-specific antibody, for the presence of Akt-phosphorylated substrates. […] The conclusion that PDNF was a substrate of Akt was further reinforced by in vitro kinase assays.
(§3) Cell monolayers were lysed with lysis buffer (20 mM tris-HCl (pH 7.5), 150 mM NaCl, 1 mM EDTA, 1% Triton X-100, 2.5 mM sodium pyrophosphate, 1 mM glycerophosphate, 1 mM Na3VO4, 1 μg/mL leupeptin and 1 mM phenylmethylsulfonyl fluoride (PMSF)) on ice for 10 min, cleared by centrifugation (12,000×g for 10 min at 4° C.) and immunoprecipitated with an antibody specific for Akt-phosphorylated substrate or with TCN-2 at 4° C. overnight Immunoprecipitates were collected with protein G-Sepharose for 2 hours at 4° C., washed with lysis buffer, and resuspended in SDS-sample buffer for SDS-PAGE and Western blotting analysis. In other experiments, total cell lysates (30 to 50 μg of protein) were resolved by SDS-PAGE, transferred to nitrocellulose membranes, and incubated with the relevant primary antibodies, followed by incubation with HRP-conjugated secondary antibody and visualization by ECL.

For series [4], the target named is Akt kinase, endogenous protein of immortalized human Schwann cells (human) (UniProt P31749). Description: cell-based or functional assay.
Series [5] relates to bacterially-expressed PDNF (recombinant full-length PDNF, clone 19Y, expressed in E. coli).
The subject of series [6] is Schwann cells. Description: H2O2-induced apoptosis, TUNEL assay. The class given is cell-based, human. On the procedure:
as §1

For series [7], the system named is mitochondrial protein BAX. In words: cDNA microarray, Sc-PDNF vs Sc-Red cells: BAX mRNA. The conditions noted are these: PDNF-expressing Schwann cells vs control cells. The class given is cell-based, human. On the procedure: (§4) These analyses were performed as described previously (55, 56). The concentration and quality of total RNA isolated from Sc-Red cells and Sc-PDNF cells were estimated by spectrophotometry (A260 nm/A280 nm of 1.9 to 2.1) and by agarose gel electrophoresis. Hybridization and data analysis were performed by the Tufts Expression Array Core with cDNAs prepared from Sc-Red cells and Sc-PDNF cells labeled with aminoallyl (aa)-dUTP Cy3 or Cy5 dyes, respectively. The two differently dye-labeled cDNAs were hybridized with the same microarray slide containing 48,500 human genes (Microarrays Inc) for 16 hours. After washing, the slide was scanned at 550 nm and 649 nm for Cy-3 and Cy-5 dyes, respectively, in a ScanArray 4000 scanner (PerkinElmer). Images were overlaid and analyzed with QuantArray spot quantification software (Packard BioChip Technologies). The ratio of both fluorescence intensities for each spot reflected the ratio of each gene expressed in the control and treatment samples. […] For each gene, ratios of red (Cy-5) over green (Cy-3) intensities (I) were calculated and normalized through a Lowess Fit of the log2 ratios (log2(Icy-5/Icy-3)) over the log2 of the total intensity (log2(Icy-5. Icy-3)). Mean ratios were calculated from the duplicate spots, and only values with a covariance (CV) b0.5 were further taken into account. […]

The subject of series [8] is Akt. Description: Western blotting of pAkt (activation of Akt) in Schwann cells. The note with it: Schwann cell-expressed PDNF compared to control transfected cells. The class given is cell-based, human. The procedure:
as §2
The coding region of the gene encoding PDNF (formerly T. cruzi neuraminidase, or TCNA) was amplified from the TS19y clone (20) with the primers TCNA-F: 5′-[…]-3′ (SEQ ID NO: 11) and TCNA-R: 5′-[…] (SEQ ID NO: 12) (restriction sites for XhoI and SacII are underlined) and inserted into the pIRES2-DsRed-Express vector (Clontech). Selected recombinant plasmids were purified with the Qiagen kit, sequenced at Tufts University Core facility, and used for transfections. Cells were plated at 1×10^5 cells/ml in 100-mm plates 20 hours before their transfection with 10 μg of total DNA per plate with the FuGENE HD transfection reagent (Roche Diagnostics) as recommended by the manufacturer. Transfected cells were selected with G418 (1 mg/ml) and analyzed for the presence of PDNF by Western blotting and trans-sialidase activity assays (26). […]
For orientation: Immunoblotting shows a protein as a band on a membrane.

For series [9], the system named is Akt3. Description: Real-time PCR, Sc-PDNF vs Sc-Red cells: Akt3. The class given is cell-based, human. The conditions noted are these: PDNF-transfected Schwann cells vs control cells. On the procedure:
(§5) These assays were performed as described previously (57, 58). In brief, RNA was isolated with the Trizol reagent and chloroform, cDNA was synthesized from 500 ng of total RNA with Superscript III reverse transcriptase primed with random hexamers, and quantitative PCR reactions were performed with QuantiTect SYBR Green PCR kit (Qiagen) on an Applied Biosystems 7300 Real-Time PCR system. Conditions for the PCR reactions were: 95° C. for 15 min, followed by 50 cycles at 94° C. for 15 s, 54° C. for 30 s, and 72° C. for 45 s, concluding with a dissociation stage to measure amplification product specificity. Primers used to calculate Akt expression were synthesized as described previously (57). Experiments were performed in triplicate, and fold differences were calculated by the 2^−ΔΔCt method (ΔΔCt=(Cttarget gene−Ctb-actin)treated−(Cttarget gene−Ctb-actin)untreated) as described previously (58).

Series [10] has as its system transcription factor FOXO. Description: cDNA microarray, Sc-PDNF vs Sc-Red cells: FOXO mRNA. The class given is cell-based, human. The note with it: PDNF-expressing Schwann cells vs control cells. On the procedure: as §4
Series [11] relates to Akt. In words: Coimmunoprecipitation of PDNF and Akt. The class given is binding. The conditions noted are these: lysates of T. cruzi-infected human Schwann cells, 4 days; IP with mAb TCN-2. On the procedure:
We infected Schwann cells with T. cruzi for 2 hours, removed parasites from the medium overlay by washing, and cultured the cells for 4 days to allow intracellular parasites to differentiate, grow, and multiply. Lysates of uninfected and infected Schwann cells were immunoprecipitated with the monoclonal antibody (mAb) TCN-2, which is specific for the C-terminal tandem repeat unit of PDNF (FIG. 1A) (23), and Western blots of these immunoprecipitates were incubated with PDNF— and Akt-specific antibodies.
as §3

The test system of a further series is other protein kinases. In words: cDNA microarray, Sc-PDNF vs Sc-Red cells: other protein kinase mRNAs. The class given is cell-based, human. The note with it: Schwann cells expressing PDNF vs control cells. The procedure:
as §4

A further series relates to caspase-9. In words: cDNA microarray, Sc-PDNF vs Sc-Red cells: caspase-9 mRNA. The class given is cell-based, human. The note with it: PDNF-expressing Schwann cells vs control cells. On the procedure:
as §4

Series [12] has as its system Akt3. Description: cDNA microarray, Sc-PDNF vs Sc-Red cells: Akt3 mRNA. The class given is cell-based, human. The note with it: Schwann cells expressing PDNF vs control cells. On the procedure: as §4
For another series, the system named is Akt2. In words: Real-time PCR, Sc-PDNF vs Sc-Red cells: Akt2. The class given is cell-based, human. The conditions noted are these: PDNF-expressing cells vs control cells, p<0.05. On the procedure:
as §5
In general terms: Real-time PCR tracks product formation cycle by cycle.

[13] abbreviates: T. cruzi-infected Schwann cells treated with inhibitor for 24 hours.

On to `O=c1[nH]c2ccccc2n1C1CCN(Cc2ccc(-c3nc4cc5[nH]cnc5cc4nc3-c3ccccc3)cc2)CC1` [Akti VIII], for which the “effect of Akt inhibitor on anti-apoptotic effect of intracellular PDNF” value with Schwann cells [1] (Akti VIII 10 μM) is “abolished”. Further, the “effect of Akt inhibitor on survival-promoting activity of PDNF” value with Schwann cells [2] (Sc-PDNF cells pretreated with Akti VIII 10 μM) was “abrogated”. Also, in the series with Schwann cells [2] (T. cruzi-infected Schwann cells pretreated with Akti VIII 10 μM), the “effect of Akt inhibitor on resistance of infected cells to oxidative stress” value was “lost”. Moreover, the “extent of the phosphorylation of PDNF” value in the series on Akt [3] (Schwann cells transfected with plasmid encoding PDNF, inhibitor for 24 hours) is “substantially decreased”. Also, in the series with Akt [3] (setting [13]), the “abundance of activated Akt (pAkt)” value is “reduction in abundance of activated Akt”, the “abundance of unphosphorylated PDNF” value is “did not affect” and the “phosphorylation of PDNF” value was “inhibition of the phosphorylation of PDNF”.

In [4], “PDNF expressed in the cytosol of human Schwann cells transfected with pIRES2-DsRed-Express carrying (enzyme)” came in with an abundance of pAkt (Ser^473), Western blot with scanning densitometry, Sc-PDNF against control transfected cells of 5 fold and an abundance of pAkt (Thr^308), Western blot with scanning densitometry, Sc-PDNF against control transfected cells of 6 fold.

Regarding “PDNF expressed in the cytosol of human Schwann cells transfected with pIRES2-DsRed-Express carrying”, in series [4], the apoptosis (TUNEL assay) of Sc-PDNF cells in TNF-α (20 ng/ml) and TGF-β (40 ng/ml) is 2.5 % of cells.

Take “Akt kinase, endogenous protein of immortalized human Schwann cells”: in series [5], the “in vitro kinase assay: phosphorylation of bPDNF by immuno-purified Akt, Western blot with antibody against Akt-phosphorylated substrates” value was “generated phosphorylated PDNF in vitro in a dose-dependent and ATP-dependent manner”.

For `OO` [H2O2, hydrogen peroxide], in the series with Schwann cells [2], the “cell survival of uninfected Schwann cells” value is given as “only half of the cells survived”. Moreover, in the series on Schwann cells [6] (100 μM H2O2, 6 hours), the “apoptosis induced in uninfected Schwann cells” value is reported as roughly 25%. Moreover, in the series with Schwann cells [6] (500 μM H2O2, 24 hours), the “uninfected cells with apoptosis-related DNA damage” value is roughly 90%.

B1: PDNF: Trypanosoma cruzi membrane-bound neuraminidase/trans-sialidase; clone 19Y expressed in Schwann cell cytosol from pIRES2-DsRed-Express plasmid (protein, listed as Trypanosoma cruzi)
chain: MGKTVVVASRMFWLMFFVPLLLAICPSEPAYALAPGSSRVELFKRKNSTVPFEDKAGKVTERVVHSFRLPALVNVDGVMVAIADARYDTSNDNSLIDTVAKYSVDDGETWETQIAIKNSRVSSVSRVVDPTVIVKGNKLYVLVGSYYSSRSYWSSHGDARDWDILLAVGEVTKSTAGGKITASIKWGSPVSLKKFFPAEMEGMHTNQFLGGAGVAIVASNGNLVYPVQVTNKKKQVFSKIFYSEDDGKTWKFGKGRSDFGCSEPVALEWEGKLIINTRVDWKRRLVYESSDMEKPWVEAVGTVSRVWGPSPKSNQPGSQSSFTAVTIEGMRVMLFTHPLNFKGRWLRDRLNLWLTDNQRIYNVGQVSIGDENSAYSSVLYKDDKLYCLHEINTDEVYSLVFARLVGELRIIKSVLRSWKNWDSHLSSICTPADPAASSSESGCGPAVTTVGLVGFLSGNASQNVWEDAYRCVNASTANAERVRNGLKFAGVGGGALWPVSQQGQNQRYRFANHAFTLVASVTIHEAPRAASPLLGASLDSSGGKKLLGLSYDEKHQWQPIYGSTPVTPTGSWETGKRYHLVLTMANKIGSVYIDGELLEGSGQTVVPDGRTPDISHFYVGGYKRSDMPTISHVTVNNVLLYNRQLNTEEIRTLFLSQDLIGTEAHM
As for B1, in series [7], the “BAX mRNA reduced in abundance” value is reported as roughly 2.6 fold. Moreover, in the series on Akt [8], the “increase in the abundance of pAkt (Ser473)” value was “five-fold” and the “increase in the abundance of pAkt (Thr308)” value is listed as “six-fold”. In addition, the “increased expression of the gene encoding Akt3” value with Akt3 [9] was found to be 3 fold. Further, the “FOXO mRNA reduced in abundance” value in series [10] was roughly 4.0 fold. For the same molecule, in the series on Akt [11], the “physical interaction between PDNF and Akt” value is “coimmunoprecipitated PDNF and Akt”. For the same molecule, in the series on other protein kinases, the “abundance of the mRNAs for other protein kinases” value is reported as “unaltered”. The “cells that underwent apoptosis (TUNEL-positive)” value in the series with Schwann cells [1] (PDNF in Schwann cell cytosol, 4 days) was 2.5%±0.7. In addition, the “caspase-9 mRNA reduced in abundance” value in the series on caspase-9 is reported as roughly 5.0 fold. Moreover, the “Akt3 mRNA more abundant” value in the series on Akt3 [12] was roughly 3 fold. Also, the “protection from H2O2-induced oxidative stress” value with Schwann cells [2] (Schwann cells transfected with plasmid encoding PDNF) was “protected from H2O2-induced oxidative stress”. Moreover, the “increase in the mRNA for Akt2” value with Akt2 is recorded as roughly 5.0 fold.

The values are drawn from patent publication US20120245221A1, “ANTI-APOPTOTIC AGENTS AND USES THEREOF” (priority 2009, published 2012).
